Read-outs that look alike come from different tables or passages of the source.
Experiments:
[1] = molecular target: HA H4 Hubei, A/swine/Hubei/06/2009(H4N1) (Influenza A virus)
[2] = molecular target: HA H7 HK16, A/Hong Kong/61/2016(H7N9) (Influenza A virus)
[3] = molecular target: HA H7 HK17, A/Hong Kong/125/2017(H7N9) (Influenza A virus)
[4] = molecular target: HA H2 Japan, A/Japan/305/1957(H2N2) (Influenza A virus)
[5] = molecular target: HA H5 Vietnam, A/Vietnam/1203/2004(H5N1) (Influenza A virus)
[6] = molecular target: HA H4 Hubei, A/swine/Hubei/06/2009(H4N1) (Influenza A virus); remark: listed apart in the source
[7] = molecular target: HA H7 HK17, A/Hong Kong/125/2017(H7N9) (Influenza A virus); remark: listed apart in the source
[8] = molecular target: HA H7 HK16, A/Hong Kong/61/2016(H7N9) (Influenza A virus); remark: listed apart in the source
[9] = molecular target: HA H7 HK17, A/Hong Kong/125/2017(H7N9) (Influenza A virus); remark: listed apart in the source

Row | Substance | Kd [1] [nM] | Kd [2] [nM] | other results
1 | MEDI8852 VH I24V Fab | 0.87 | 8.58 | –
2 | MEDI8852 VL R92D Fab | – | 26.4 | –
3 | MEDI8852 VH E65R Fab | 0.32 | 1.54 | Kd [3]: 0.036 nM; Kd [4]: < 0.001 nM; Kd [5]: < 0.001 nM
4 | MEDI8852 VH D27F Fab | 0.9 | 9 | –
5 | MEDI8852 VH T53I Fab | 0.747 | 10.3 | –
6 | MEDI8852 UCA VH K58S-V65P IgG (antibody) | – | – | Kd [6]: 80 nM
7 | MEDI8852 VH S44G Fab | 0.596 | 7.03 | –
8 | MEDI8852 VH E65R-M117Y Fab | 0.248 | 1.7 | Kd [3]: 0.02 nM; Kd [4]: < 0.001 nM; Kd [5]: < 0.001 nM; fold improvement in Kd vs wildtype [7]: 10 fold; fold improvement in Kd over wildtype [8]: 3.6 fold
9 | MEDI8852 VL G55A Fab | 0.512 | 5.11 | –
10 | MEDI8852 VL L29V Fab | 4.2 | 80 | –
11 | MEDI8852 VH P75R Fab | 0.779 | 7.14 | –
12 | MEDI8852 VH N74S Fab | 0.531 | 5.98 | –
13 | MEDI8852 UCA VH K58S-V65P/VL G95P IgG (antibody) | – | – | Kd [6]: 30 nM; Kd [9]: 5.6 nM
14 | MEDI8852 VH M117Y Fab | 0.356 | 4.07 | –
15 | MEDI8852 VL G95P Fab | 0.802 | 5.31 | –
16 | MEDI8852 VL T25A Fab | 1.45 | 16.8 | –
17 | MEDI8852 VH E65P Fab | 0.31 | 2.33 | Kd [3]: 0.1 nM; Kd [4]: < 0.001 nM; Kd [5]: < 0.001 nM
18 | MEDI8852 VH E65P-M117Y Fab | 0.36 | 2.7 | Kd [3]: 0.043 nM
19 | MEDI8852 VL T33L Fab | 3.2 | 41 | –

Reference: patent publication US20250243261A1
